Source: US20060121042A1 (AstraZeneca / MedImmune, published 2006)

How the values were obtained:
r murine EphA8 = target: T1, r murine EphA8 (mouse, UniProt O09127); test: Activity ELISA, receptor coated on the plate, purified IgG, anti-human kappa-HRP, OD 450 nm
T1 construct: recombinant soluble protein coated on the plate; also called mEphA8; rEphA8
T1 sequence (receptor construct, looked up): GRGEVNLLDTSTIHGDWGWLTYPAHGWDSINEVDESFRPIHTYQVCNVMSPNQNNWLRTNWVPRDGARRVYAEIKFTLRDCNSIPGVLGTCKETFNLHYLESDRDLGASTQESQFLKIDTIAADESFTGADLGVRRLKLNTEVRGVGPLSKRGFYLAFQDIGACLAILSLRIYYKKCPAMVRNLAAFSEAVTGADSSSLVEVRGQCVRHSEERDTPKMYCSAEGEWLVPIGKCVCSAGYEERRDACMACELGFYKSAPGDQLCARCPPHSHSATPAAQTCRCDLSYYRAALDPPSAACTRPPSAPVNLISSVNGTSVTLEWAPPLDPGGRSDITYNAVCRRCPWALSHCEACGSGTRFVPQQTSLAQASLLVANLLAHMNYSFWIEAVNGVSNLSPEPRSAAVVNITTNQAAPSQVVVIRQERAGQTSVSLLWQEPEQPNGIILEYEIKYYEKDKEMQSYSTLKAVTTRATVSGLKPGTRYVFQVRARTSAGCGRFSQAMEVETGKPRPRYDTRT
Description: (§1) Secondary screening of IgG constructs of affinity optimized combinatorial variants with additional EphA receptors: With purified IgG constructs of the nine combinatorial variants, additional secondary screening assays were performed using the Activity ELISA (see above) and recombinant EphA receptor proteins. More precisely, Nunc Maxisorp plates were coated with the following rEphA proteins: rhuEphAl-Fc; 0.5 μg/well, rmuEphA2-Fc; 0.5 μg/well, rmuEphA3-Fc: 0.1 μg/well, rmuEphA4-Fc; 0.1 μg/well, rratEphA5-Fc; 0.5 μg/well, rmuEphA6-Fc; 0.5 μg/well, rmuEphA7-Fc; 0.1 μg/well, rEphA8; 0.2 μg/well (all R&D Systems), rhuEphA2-Fc; 0.5 μg/well, and rhuEphA4-His; 0.1 μg/well (both produced at MedImmune, Inc.). Plates were blocked with 3% BSA+0.1% Tween20 for 2 h. […] Incubation with a goat anti-human kappa horseradish peroxydase (HRP) conjugate then followed. HRP activity was detected with TMB substrate and the reaction quenched with 0.2 M H₂SO₄. Plates were read at 450 nm. Data was analyzed by normalizing Fab concentrations to the corresponding activity data (see FIGS. 12A-12J and 14).

mEphA4 = target: T2, mEphA4 (mouse, UniProt Q03137); test: ELISA, receptor coated on the plate, purified IgG, anti-human kappa-HRP
T2 construct: part of an Fc fusion; also called rmuEphA4-Fc
T2 sequence (Q03137 20-547 limits assumed): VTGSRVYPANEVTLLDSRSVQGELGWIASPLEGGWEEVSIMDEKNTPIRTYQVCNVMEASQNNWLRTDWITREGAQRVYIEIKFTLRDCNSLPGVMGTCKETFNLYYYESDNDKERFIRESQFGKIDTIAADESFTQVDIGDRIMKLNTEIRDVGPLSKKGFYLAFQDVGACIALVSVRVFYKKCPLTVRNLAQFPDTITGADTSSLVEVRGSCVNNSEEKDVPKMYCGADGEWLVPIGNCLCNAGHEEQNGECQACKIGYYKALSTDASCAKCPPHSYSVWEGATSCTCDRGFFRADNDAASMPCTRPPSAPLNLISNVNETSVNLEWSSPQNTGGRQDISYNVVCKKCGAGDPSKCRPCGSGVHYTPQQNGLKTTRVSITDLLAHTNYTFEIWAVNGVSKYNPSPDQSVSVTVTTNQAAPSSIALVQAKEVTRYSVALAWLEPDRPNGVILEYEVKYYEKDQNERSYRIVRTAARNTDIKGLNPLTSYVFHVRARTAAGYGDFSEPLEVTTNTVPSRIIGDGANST

mEphA7 = target: T3, mEphA7 (mouse, UniProt Q61772); test: as above
T3 construct: part of an Fc fusion; also called rmuEphA7-Fc
T3 sequence (receptor-Fc fusion, looked up): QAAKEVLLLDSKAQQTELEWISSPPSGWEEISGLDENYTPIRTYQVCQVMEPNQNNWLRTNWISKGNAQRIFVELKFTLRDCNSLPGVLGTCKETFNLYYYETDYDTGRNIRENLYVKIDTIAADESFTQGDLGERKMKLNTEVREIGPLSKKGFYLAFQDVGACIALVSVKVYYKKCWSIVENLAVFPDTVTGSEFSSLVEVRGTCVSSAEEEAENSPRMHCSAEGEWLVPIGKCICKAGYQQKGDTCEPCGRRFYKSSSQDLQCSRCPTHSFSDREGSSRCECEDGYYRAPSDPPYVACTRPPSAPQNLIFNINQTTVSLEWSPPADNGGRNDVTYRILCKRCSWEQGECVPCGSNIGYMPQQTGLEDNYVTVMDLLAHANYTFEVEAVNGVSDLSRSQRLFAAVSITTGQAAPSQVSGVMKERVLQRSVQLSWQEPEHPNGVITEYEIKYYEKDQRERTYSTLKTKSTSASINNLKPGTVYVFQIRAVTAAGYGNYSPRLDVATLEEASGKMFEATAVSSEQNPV

[1] = target: T4, Human EphA4-Fc fusion protein (human, UniProt P54764 20-547); test: BIAcore, IgG immobilized on the sensor chip, EphA4-Fc as analyte; comment on the sheet: off-rate below LOD
T4 construct: not shown: Fc portion of a human IgG1
T4 sequence (P54764 20-547): as the sequence (Q03137 20-547 limits assumed) above, with A59P, S121N, G124V, Q250R, N251S, S270T, R378K, S406N counted along it
Description: FIG. 15A-15B. […] Binding affinities were measured using the BIAcore assay. […] Variant kinetic measurements for human EphA4 and were obtained using BIAcore with immobilized variant antibodies and human EphA4-Fc and EphA4-His as analytes.

r murine EphA4 = target: T5, r murine EphA4 (mouse, UniProt Q03137); test: activity ELISA, IgG on coated antigen
T5 construct: recombinant Fc fusion (R&D Systems); also called rmuEphA4-Fc; mEphA4
T5 sequence (Q03137 20-547 limits assumed): as the sequence (Q03137 20-547 limits assumed) above

r murine EphA7 = target: T6, r murine EphA7 (mouse, UniProt Q61772); test: activity ELISA, IgG on coated antigen
T6 construct: recombinant Fc fusion (R&D Systems); also called rmuEphA7-Fc; mEphA7
T6 sequence (receptor-Fc fusion, looked up): T3 sequence (receptor-Fc fusion, looked up)

r rat EphA5 = target: T7, r rat EphA5 (rat, UniProt P54757); test: Activity ELISA, receptor coated on the plate, purified IgG, anti-human kappa-HRP
T7 construct: part of an Fc fusion; also called rEphA5; rratEphA5-Fc
T7 sequence (P54757 27-575 limits assumed): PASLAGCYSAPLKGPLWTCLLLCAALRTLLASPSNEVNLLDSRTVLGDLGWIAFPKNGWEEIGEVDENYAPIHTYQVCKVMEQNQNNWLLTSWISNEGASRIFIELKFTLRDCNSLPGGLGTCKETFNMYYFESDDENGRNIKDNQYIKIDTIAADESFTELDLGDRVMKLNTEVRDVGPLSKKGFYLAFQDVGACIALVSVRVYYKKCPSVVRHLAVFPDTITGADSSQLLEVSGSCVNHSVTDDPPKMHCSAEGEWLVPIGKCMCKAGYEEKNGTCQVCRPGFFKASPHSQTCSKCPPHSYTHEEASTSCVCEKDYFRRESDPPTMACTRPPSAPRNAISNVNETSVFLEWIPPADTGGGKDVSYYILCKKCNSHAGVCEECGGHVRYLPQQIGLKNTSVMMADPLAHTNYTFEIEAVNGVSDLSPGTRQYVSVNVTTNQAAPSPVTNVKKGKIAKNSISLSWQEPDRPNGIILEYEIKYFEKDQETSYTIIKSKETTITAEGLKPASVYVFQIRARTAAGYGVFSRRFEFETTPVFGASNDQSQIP
Description: as §1

B1: 3A12 IgG1 (affinity optimized combinatorial variant of mAb GEA44 in human IgG1 format) (antibody, V domains shown)
VH: QVQLLQSGAEVKKPGASVKVPCKASGYTFTSRAMSWVRQAPGQGLEWMGWINTNTGNPTYAQGFTGRFVFSLDTSVSTAYLQISSLKAEDTAVYYCARVRFTVYGDGMDVWGQGTLVTVSS
VL: EIVLTQSPATLSVSPGERATLSCRASQSVSSNLAWYQQKPGQAPRLLIYGASTWATGIPDRFSASGSGTDFTLTISRVEPEDFAVYYCQQYGPSWTFGQGTKVEIK
- binding result (r murine EphA8): binds
- binding result (mEphA4): binds
- binding result (mEphA7): binds
- Kd [1]: 6 pM
- koff [1]: 8.66e-07 s⁻¹
- kon [1]: 147000 M⁻¹ s⁻¹
- binding result (r murine EphA4): binds
- binding result (r murine EphA7): binds
- binding result (r rat EphA5): binds
